Data from the Human Domainome abundance scans (Beltran et al. 2025).
± gives the uncertainty stated by the source.

B1: Metastasis-associated protein MTA3, residues 265 to 317; numbered along this chain, Q9BTC8 (parent)
chain: RDEMEEWSASEASLFEEALEKYGKDFNDIRQDFLPWKSLTSIIEYYYMWKTTD
B2: Ras GTPase-activating protein 1, residues 281 to 341; numbered along this chain, P20936 (parent)
chain: RRRVRAILPYTKVPDTDEISFLKGDMFIVHNELEDGWMWVTNLRTDEQGLIVEDLVEEVGR

Variants of: B1
Assay: abundance fitness (aPCA) (normalised: wild type 0, dead -1); higher = more abundant; growth selection in yeast, the domain comes from the species named
Conditions: Homo sapiens

Point of comparison: RDEMEEWSASEASLFEEALEKIGKDFNDIRQDFLPWKSLTSIIEYYYMWKTTD, abundance fitness 0.078 ± 0.26. Against it:
- RDEMEEWSASEASLFEEALEKYGKDFNDIRQDFLPHKSLTSIIEYYYMWKTTD — within error, -0.239 ± 0.069
- RDEMEEWSASEASLFEEALEKYNKDFNDIRQDFLPWKSLTSIIEYYYMWKTTD — lower, -0.638 ± 0.19
- RDEMEEWSASEASLFEEALEKYPKDFNDIRQDFLPWKSLTSIIEYYYMWKTTD — lower, -0.81 ± 0.16
- RDEMEEWSASEASLFEEALEKYGKDSNDIRQDFLPWKSLTSIIEYYYMWKTTD — lower, -0.959 ± 0.22
- RDEMEEWSASEASLFEEALEKYGKDFNDIRQDFLPWKSLTSIIEYYYMWETTD — lower, -0.278 ± 0.092
- RDEMEEWSASEASLFEEALEKYGDDFNDIRQDFLPWKSLTSIIEYYYMWKTTD — within error, -0.165 ± 0.096
- RDEMEEWSASEASLFEEALEKYGKDFNDIRQDFLPWKSLTSIGEYYYMWKTTD — lower, -0.491 ± 0.11
- RDEMCEWSASEASLFEEALEKYGKDFNDIRQDFLPWKSLTSIIEYYYMWKTTD — within error, -0.341 ± 0.32
- RDEMSEWSASEASLFEEALEKYGKDFNDIRQDFLPWKSLTSIIEYYYMWKTTD — within error, -0.107 ± 0.12
- RDEMEEWSASEASLFEEALEKYGKDFNDIRQDFLPWKSLTSIIEYYAMWKTTD — within error, 0.387 ± 0.1
- RDEMEEWSASEASLFEEALEKYGKDFNDIRQDFLPWKSLTSIIEYYRMWKTTD — within error, 0.31 ± 0.078
- RDEMEEWSASEASWFEEALEKYGKDFNDIRQDFLPWKSLTSIIEYYYMWKTTD — lower, -0.956 ± 0.18
- RDEMETWSASEASLFEEALEKYGKDFNDIRQDFLPWKSLTSIIEYYYMWKTTD — within error, -0.267 ± 0.4
- RDEMEEWSASEASLFEEALEKYGKDFNDIRQDFLPWKSLTSIIEYYYMWKTTI — within error, -0.566 ± 0.48
- RDEMEEWSASEASLFEEALEKYGKDFNDIRQDFLPWKSLTSIIEYYYMWKTTC — within error, 0.179 ± 0.29
- RDEMEEWSASEASLFEEALDKYGKDFNDIRQDFLPWKSLTSIIEYYYMWKTTD — within error, -0.283 ± 0.12
- RDEMEEWSASEASLFEHALEKYGKDFNDIRQDFLPWKSLTSIIEYYYMWKTTD — lower, -0.737 ± 0.12
- RDEMEEWSASEASLFEEALEKYGKDFNDIRQDFLPWKSLTSIIEYYYMPKTTD — lower, -0.599 ± 0.12
- RDEMEEWSASEASLFEEALEKYGKDFNDIRQDFLPWKSLTSIIEYYYMTKTTD — within error, 0.248 ± 0.073
- RDEMEEWSASEASLFEEALEKYGKDFNDIRQDFLPWKSLTSIIEYYYMEKTTD — within error, 0.075 ± 0.27
- RDEMEEWSASEASLFEEALEKYGKDFNPIRQDFLPWKSLTSIIEYYYMWKTTD — within error, -0.522 ± 0.48
- RDEMEEWSASEASLFEEYLEKYGKDFNDIRQDFLPWKSLTSIIEYYYMWKTTD — lower, -0.703 ± 0.19
- RDEMEEWIASEASLFEEALEKYGKDFNDIRQDFLPWKSLTSIIEYYYMWKTTD — lower, -0.518 ± 0.17
- RDEMEEWYASEASLFEEALEKYGKDFNDIRQDFLPWKSLTSIIEYYYMWKTTD — within error, 0.086 ± 0.14
- RDEMEEWQASEASLFEEALEKYGKDFNDIRQDFLPWKSLTSIIEYYYMWKTTD — lower, -0.749 ± 0.28
- RDEMEEWMASEASLFEEALEKYGKDFNDIRQDFLPWKSLTSIIEYYYMWKTTD — lower, -0.771 ± 0.17
- RDEMEEWSASEASLFEEALEKYGKDFNDIRQDFLPWKSLTSIIEYYYEWKTTD — within error, -0.207 ± 0.28
- RDEMEEWSASEASLFEEALEKYGKDFNDIRQDFLPWKSLTSIIEYYYPWKTTD — lower, -0.817 ± 0.13
- RDEMEEWSASEALLFEEALEKYGKDFNDIRQDFLPWKSLTSIIEYYYMWKTTD — within error, -0.045 ± 0.08
- RDEMEEWSASEAWLFEEALEKYGKDFNDIRQDFLPWKSLTSIIEYYYMWKTTD — lower, -0.689 ± 0.18
- RDEMEEWSASEASLFEEALEKYGKDFTDIRQDFLPWKSLTSIIEYYYMWKTTD — within error, -0.148 ± 0.35
- RDEMEEWSASEASLFIEALEKYGKDFNDIRQDFLPWKSLTSIIEYYYMWKTTD — lower, -0.693 ± 0.17
- RDEMEEWSASEASLFEEALEKYGKSFNDIRQDFLPWKSLTSIIEYYYMWKTTD — within error, 0.366 ± 0.086

Variants of: B2
Assay: as above
Conditions: Homo sapiens

Point of comparison: RRRVRAILPYTKVPDTDEISFLKGDMFIVHNELEDGWMWVTNLRTDEQGLIVEDLVEEVHR, abundance fitness -0.054 ± 0.074. Against it:
- RRRVRAILPYTKVPDTDEISFLKGDMFIVHNELEDGWMWVTNLRTDEQGLIVEDLVEEVLR — within error, -0.227 ± 0.12
- RRRVRAILPYTKVPDTDEISFLKGDMFIVHNELEDGWMWVTNLRTDEQGLIVEDLVEEVSR — within error, -0.068 ± 0.05
- RRRVRAILPYTKVPDTDEISFLKGDMFIVHNELEDGWMWVTNLRTDEQGLIVEDLVEEVMR — lower, -0.289 ± 0.12
- RRRVRAILPYTKVPDTDEISFLKGDMFIVHNELEDGWMWVTNLRTDEQGLIVEDLVEEVNR — within error, -0.006 ± 0.065
- RRRVRAILPYTKVPDTDEISFLKGDMFIVHNELEDGWMWVTNLRTDEQGLIVEDLVEEVIR — lower, -0.299 ± 0.11
- RRRVRAILPYTKVPDTDEISFLKGDMFIVHNELEDGWMWVTNLRTDEQGLIVEDLVEEVPR — within error, -0.023 ± 0.16
- RRRVRAILPYTKVPDTDEISFLKGDMFIVHNELEDGWMWVTNLRTDEQGLIVEDLVEEVDR — within error, -0.063 ± 0.057
- RRRVRAILPYTKVPDTDEISFLKGDMFIVHNELEDGWMWVTNLRTDEQGLIVEDLVEEVFR — lower, -0.211 ± 0.07
- RRRVRAILPYTKVPDTDEISFLKGDMFIVHNELEDGWMWVTNLRTDEQGLIVEDLVEEVCR — within error, -0.081 ± 0.067
- RRRVRAILPYTKVPDTDEISFLKGDMFIVHNELEDGWMWVTNLRTDEQGLIVEDLVEEVQR — lower, -0.328 ± 0.18
